Source: the nanobody polyreactivity screen of Harvey et al. (2022)

Experiment: yeast display, Sf9 membrane polyspecificity reagent, FACS + sequencing; frameworks hold sequencing errors
How it was run: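 Using colony PCR, genes from sorted yeast display clones were amplified, then sequenced on MiSeq at 2 × 250 and filtered by CDR length. The clones had been stained with 10% biotinylated, detergent-solubilized Sf9 membrane reagent for 1 hour at 4 °C and sorted by FACS into low and high (top ~1%) gates on anti-HA and streptavidin fluorescence. Polyreactivity labels come from the gate of origin.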

QVQLVESGGGLVQAGGSLRLICAASGSIFPRYVMGWSRQAPGKERELVAAITRRGGSTYYADSVKGRFTISRDNAKHTVYLQMNSLKPADTAVYYCNAKYRLEMDWGQGTQVTVSS
polyreactivity (PSR sort gate): high polyreactivity

QVQLVESGGGLVQAGGSLRLSCAASGFTFAVYAMGWYRQAPGKERELVAAINRGGGSTYADSVKGRFTISRDTAKNTVYLQMNSLKPEDTAVYYCAARVYGTRKINYSWGQGTQVTVSS
polyreactivity (PSR sort gate): high polyreactivity

QVQLVESGGGLVQAGGSLRLSSPASGSIFITYAMGWYRQAPGKESELVAAIRDSGDRTYYADSVKGRFTISRDNAKKTVYFQMNSLKPEDTAVYYCNARWQEPLKYDYWGQGTQVTVSS
polyreactivity (PSR sort gate): low polyreactivity

QVQLVESGGGLVQAGGSLRLSCAASGNIFAWYAMGWYRQAPGKERELVADISSRGGSSYYADSVKGRFTISRDTAKNTVYLQMNSLKPEDTAVYYCAAVWYWTQDYDYWGQGTQVTVSS
polyreactivity (PSR sort gate): low polyreactivity

QVQLVEAGGGLVQAGGSLRLSCASSGRIFNLYAMALYRQAPGKERELVAAINWSGDRTSYADSVKGRFTISRDNAKNTVYLQMNSLKPEDTAVYYCAAEYGLGDDTAYGYWGQGTQVTVSS
polyreactivity (PSR sort gate): low polyreactivity

QVQLVESGGGIVQAGGSLRLSCSASGSIFPLDGMGSYRQAPGKERELVAAISIGGRTNYADSVKGRFTISRDNAKNTVYLQMTSLKPEDTAVYYCNAVSKFVYRNRILWYDYWGQGTQVTVSS
polyreactivity (PSR sort gate): high polyreactivity

QVQLVESGVGLVQAGGSLRLSCAASGRTFGYYAMGWYRLAPGKERELVAAISSGGSTNYADSVKGRFTISRDNAKNTVYLQMNSLKPEDTAVYYCAAKAWYYPGRRNYYQYYYWGQGTQVTVSS
polyreactivity (PSR sort gate): high polyreactivity

QVQLVESGGGLVQAGGSLRLSCAASGRIFNLNAMGWYRQAPGKERELVAAISKSGTRTYYADSVKGRFTISRDNAKNTVYLQMNSLKQEDTAVYYCAAEALYYDRLGWVYLRYDYWGQGTQVTVSS
polyreactivity (PSR sort gate): high polyreactivity

QFQLVESGGGLVQAGGSLRLSSAASGFIIRYYAMGWYRQAPGKERELVAAISASGGSTYYADSVKGRFTISRDNAKNTVYLQMNSLKPEDTAVYYCAARYWLREDYWGQGTQVTVSS
polyreactivity (PSR sort gate): high polyreactivity

QVQLVEAGGGLGQAGGSLRLSCAASGFTFYRYARGWYRQAPGKERELVAAISSSGGRTYYADSVKGRFTISRDTAKNTVYLQMNSLKPEDTAVYYCNVVRLQSYYGPFDYWGQGTQVTVSS
polyreactivity (PSR sort gate): high polyreactivity

QVQLVESGGGLVQAGGSLRLSCAASGSTFVRYVMGWYRQAPGKERELVAAISRRGGSTYYADSVKGRFTISRDNAKNTVYLQMNSLKPEDTAVYYCARTVGYRTLLESDSWGQGTQVTVSS
polyreactivity (PSR sort gate): high polyreactivity

QVQLVESGGCLVQAGGSLRLSCAASGSIFPVNAMGWYRQAPGKERELVAAITSSGGTTYYADSVKGRFTISRDNAKNTVYLQMNSLKPEDTAVYYCAADVDVSYWRMEYWGQGTQVTVSS
polyreactivity (PSR sort gate): high polyreactivity

QVQLVESGGGLVQAGGSLRLSCVASGRIFLTYAMGWYRQAPGKERELVAAISYSGASTYYADSVKGRFTISRDNAKNTVYLQMNSLKPEDTSVYYCATERVGTPRMNYWGQGTQVTVSS
polyreactivity (PSR sort gate): high polyreactivity

QVQLVESGGGLVQAGGSLRLSCAASGFTLDWYAMGWYRQAPGKERELVAAIWSAGTTYYADSVKGRFTISRDNAKNTVYLQMNSLKPEDTAVYYCATVSDYDFGLYDYWGQGSQVTVSS
polyreactivity (PSR sort gate): low polyreactivity

QVQLVESGGGLVQAGGSLRLSCAASGYTFYQNTMGWYRQAPGKERELVADITRRGGSTYYADSVKGRFTISRDNAKNTVYLQINSLKPEDTAVYYCAARYGPWTGYATYRYASSRYNYWGQGTQVTVSS
polyreactivity (PSR sort gate): high polyreactivity

QGQLVESGGGLVQAGGSLRLSSAASGRIYLTNAMGWYRPAPGKERELVAAITSGGSTYYADSVKGRFTISRDNAKNTVYLQMNSLKPEDTAVYYCNADTDRYWPYEYDYWGQGTQVTVSS
polyreactivity (PSR sort gate): low polyreactivity

QVQLVESGGGLVQAGGSLRLSCAASGFTSLVNAMGWYRQAPGKERELVAAITGGGSTNYADSVKGRFTISRDNAKNTVYLQMNSLKPEDTAVYYCNAVGYYGYPRIPQFYAFAFYYWGQGTQVTVSS
polyreactivity (PSR sort gate): low polyreactivity

QVQLVESGGGLLQAGGSLRLSCAASGFTIKYYAMGWYRPAPGKERELVAAIRGSGAGTYYADSVKGRFTISRDNAKNTVYLQMNSLKPEDTAVYYCNKRWTYQWDDYWGQGTQVTVSS
polyreactivity (PSR sort gate): high polyreactivity

QVQLVESGGGLVQAGGSLRLSCAASGRTFQFYPMGWYRQAPGKERELVAAIDLRGGSTYYADSVKGRFTISRDNAKNTVYLQMNSLKPEDTAVYYCNADRYTGRDGEQSLDYWGQGTQVTVSS
polyreactivity (PSR sort gate): low polyreactivity

QVQLVESGGGLVQAGGSLRLSCAASGSIFFDGNAMGWYRQAPGKERELVAAISVSGGSTYYADSVKGRFTISRDNAKNTVYLQMNSLKPEDTAVYYCAKYPSKSYVPGDYWGQGTQVTVSS
polyreactivity (PSR sort gate): low polyreactivity

QVQLVESGGGLVQAGGSLRLSCADSGSTFRRYAMGWYRQAPGKERELVAAISWSGGSTYYADSVKGRFTISRDNAKNTVYLQMKSLKPEDTAVYYCAARGVTSYWQDYDYWGQGTQVTVSS
polyreactivity (PSR sort gate): low polyreactivity

QVHLVESGGGLFQAGGSLRLSFAATGLTFSPYARGWYRHGPGKERELVASITNGGRTYYADSVKGRFTISRDNAKITVYLQMNSLKPEDTAVYYCAAYPRGARRLDYWGQGTQVTVSS
polyreactivity (PSR sort gate): high polyreactivity

QVQLVESGGGLVQAGGSLRLSCAASGRIFYFNGMGWDRQAPGKERELVAAITWNTGSTYYADSVKGRFTISRDNAKNTVYLQMNSLKPEDTAVYYCNAPWAGQHPTLWKGGYWGQGTQVTVSS
polyreactivity (PSR sort gate): low polyreactivity

QVQHVESGGGLVQAGGSLRLSCAASGSIFYVNAMGWYRQAPGKERELVAAITRDGSTNYADSVKGRFTISRDNAKNTVYLQMNSLKPEDTAVYYCAADFVRYIDREDYWGQGTQVTVSS
polyreactivity (PSR sort gate): low polyreactivity

QVQLVESGGGLVQAGGSLRLSCAASGRIFTRYTMGWYRQAPGKESELVAAISRSGGSTYYADSVKGRFTISRDNEKNTVYLQMNSLKPEDTAVYYCAAKGPYTYGYGYWGQGTQVTVSS
polyreactivity (PSR sort gate): high polyreactivity

QLQLEESGRGLVQAGGSLRLSCAASGSIFYSNTMGWYRQAPGKERELVAAISTSDTSTYYADSVKGRFTISREKAKNTVYLQMNSLKPEDTAVYYCNAVGSIVLYGYWGQGTQVTVSS
polyreactivity (PSR sort gate): low polyreactivity

QVQLVESGGGLVQAGGSLRLSCAASGRIIYRYAMGWYRQAPGKERELVAAISYRGGSTYYADSVKGRFTISRDNAKNTVYLQMNSLKPEDTAVYYCAADRRYYDWRYGGFDYWGQGTQVTVSS
polyreactivity (PSR sort gate): high polyreactivity

QVQLVESGGGLVQAGGSLRLSCAASGLTFVQNAMGWYRQAPGKERELVAAISTSGGSTYYADSVKGRFTISRDNAKNTVYLQMNSLKPEDTAVYYCAAYPRSWWRGYDYWGQGTQVTVSS
polyreactivity (PSR sort gate): high polyreactivity

QVQLVESGGGLVQAGGSLRLSCAASGRTFGYNAMGWYIQAPGKERELVAAINWSGASTYYADYVKGRFTISRDNAKNTVYLQMNSLKPEDTAVYYCAADYSYIYGFDYWGQGTQVTVSS
polyreactivity (PSR sort gate): low polyreactivity

QVQLVESGGGLVQAGGSLRLSCAASGSTFRRNTMGWYTQAPGKERELVAGISSSGGSTYYADSVKGRFTISRDNAKNTVYLQMNSLNPEDTAVYYCDARFYVSYVGYNYWGHGTQVTVSS
polyreactivity (PSR sort gate): high polyreactivity

QVQLQESGGGLVQVGGSLRLSCAASGNIFIYGIMGWNRQAPGKERELVASINLGGITNYADSVKGRFTISRDNAKNTVYLQMISLKPEDTAVYYCAAYVVTGQNYGYWGQGTQVTVSS
polyreactivity (PSR sort gate): low polyreactivity

QVQLVESGGGLVQAGGRLLLSCAASGSTFTRNAMGWYRPAPGKERELVAAISSSGSRTYYADSVKGRFTISRDNAKNTVYLQMNSLIPADTAVYYCNKTKHSYLYTDDDYWGQGTQVTVSS
polyreactivity (PSR sort gate): high polyreactivity

QVQLVESGGGLVQAGGSLRLSCAASGYIFISYAMGWYRQAPGKEREFVAAITGDGGSTYADSVKGRFSISRDNAKNTVYLQMNSLKPEDTAVYYCAVDGYGGEADYEYDHCGQGTQVTVSS
polyreactivity (PSR sort gate): low polyreactivity

QVQLVESGGGLVQAGGSLRLSCAAYGSTFRSYAMGWYRQAPGKERELVAAISYSGDSTYYADSVKGRFTISRDNAKNTVYLQMNSLKPEDTAVYYCAALRDWDFQCEPWKRYGYWGQGTLVTVSS
polyreactivity (PSR sort gate): low polyreactivity

QVQLVESGGGLVQAGGSLRLSCAASGRILHFYAMGWYRQAPGKERELVAAISKSGGSTYYADSVKGRFTISRDNAKNTVYLQMNSLKPEDTAVYYCAASFIRRGSYSTTSAPGRYYWGQGTQVTVSS
polyreactivity (PSR sort gate): high polyreactivity

QVQLVESGGGLVQAGGSLRLSCAASGGTFSTYAMGWYRQAPGKEREFVAAITRSGTSTYYADSVKGRFTISRDNAKNTVYLQMNSLKPEDTAVYYCATGEHFYRKLDYWGQGTQVTVSS
polyreactivity (PSR sort gate): low polyreactivity

QVQLVESGGGLVQAGGSLRLSCAASGFTLGNYAMGWYRQAPGKERELVAVITSGGRTYYADSVKGRFTISRDNAKNTVYLQMNSLKPEDTAVYYCNTKVYYYYRAVVDFDYWGQGTQVTVSS
polyreactivity (PSR sort gate): low polyreactivity

QVQLVESGGGLVQAGGSLRLSCAASGFIFGVYAMGWYRQAPGKERELVAAISGSGGTTYYADSVKGRFTISRDNAKNTVYLQMISLKPEDTAVYYCNAAYRVRYIVNYDYWGQGTQVTVSS
polyreactivity (PSR sort gate): low polyreactivity

QVQLVESGGGLVQAGGSLRLSCAASGRIFKKNAMGWYRQAPGKERELVADINWTGGSTYYADSVKGRFTISRDYAKNTVDLQMNSLKPEDTAVYYCAVGVYPSYRGTTFSTRRDYWGQGTQVTVSS
polyreactivity (PSR sort gate): low polyreactivity

QVQLVESGGGLVQAGGSLRLSCAASGYIFSGYAMGWYRQAPGKERELVAAISSSGGRTYYADSVKGRFTISRDNAKNTVYLQMNSLKPEDTAVYYCAARIRTVAHVDYDYWGQGTQVTVSS
polyreactivity (PSR sort gate): high polyreactivity

QVQLVESGGGLVQAGGSLRLSCAASGSIFAGYAIGWYRQAPGKERELVAAISWSGGGTYYADSVKGRFTISRDNAKNTVYLQMNSLKPEDTAVYYCNAYGYRHRGNGYWGQGTQVTVSS
polyreactivity (PSR sort gate): high polyreactivity

QVQLVESGGGLVQAGGSLRLSCAASGFILRYYAMGWYRPAPGNERELVAAISSGGGTYYADSVKGRFTISRDNAKNTVYLQMNSLKPEDTAVYYCNKASTSYYRFNYWGQGTQVTVSS
polyreactivity (PSR sort gate): high polyreactivity

QVQLVESGGGLVQAGGRLRLSCAASGSIFGTNAMGWYRQAPGKERELVAAISSSGTSTYYADSVKGRFTISRDNAKNTVYLQMNSLKPEDTAVYYCAAATNWGGEYWGQGTQVTVSS
polyreactivity (PSR sort gate): high polyreactivity
